The source of these data is patent US20140274782A1, “AFFINITY REAGENTS AND METHODS FOR DETECTION, PURIFICATION, AND PROTEOMIC ANALYSIS OF METHYLATED PROTEINS” (The Board of Trustees of the Leland Stanford Junior …, priority 2013, published 2014).

First the molecules themselves.
B1: ZNF326 (protein, UniProt Q5BKZ1 1-582, looked up)
DBIRD complex subunit ZNF326: MDFEDDYTHSACRNTYQGFNGMDRDYGPGSYGGMDRDYGHGSYGGQRSMDSYLNQSYGMDNHSGGGGGSRFGPYESYDSRSSLGGRDLYRSGYGFNEPEQSRFGGSYGGRFESSYRNSLDSFGGRNQGGSSWEAPYSRSKLRPGFMEDRGRENYSSYSSFSSPHMKPAPVGSRGRGTPAYPESTFGSRNYDAFGGPSTGRGRGRGHMGDFGSIHRPGIVVDYQNKSTNVTVAAARGIKRKMMQPFNKPSGTFIKKPKLAKPMEKISLSKSPTKTDPKNEEEEKRRIEARREKQRRRREKNSEKYGDGYRMAFTCSFCKFRTFEEKDIELHLESSSHQETLDHIQKQTKFDKVVMEFLHECMVNKFKKTSIRKQQTNNQTEVVKIIEKDVMEGVTVDDHMMKVETVHCSACSVYIPALHSSVQQHLKSPDHIKGKQAYKEQIKRESVLTATSILNNPIVKARYERFVKGENPFEIQDHSQDQQIEGDEEDEEKIDEPIEEEEDEDEEEEAEEVGEVEEVEEVEEVREGGIEGEGNIQGVGEGGEVGVVGEVEGVGEVEEVEELEEETAKEEPADFPVEQPEEN
B2: API5 (protein, UniProt Q9BZZ5 2-524, looked up)
Apoptosis inhibitor 5: PTVEELYRNYGILADATEQVGQHKDAYQVILDGVKGGTKEKRLAAQFIPKFFKHFPELADSAINAQLDLCEDEDVSIRRQAIKELPQFATGENLPRVADILTQLLQTDDSAEFNLVNNALLSIFKMDAKGTLGGLFSQILQGEDIVRERAIKFLSTKLKTLPDEVLTKEVEELILTESKKVLEDVTGEEFVLFMKILSGLKSLQTVSGRQQLVELVAEQADLEQTFNPSDPDCVDRLLQCTRQAVPLFSKNVHSTRFVTYFCEQVLPNLGTLTTPVEGLDIQLEVLKLLAEMSSFCGDMEKLETNLRKLFDKLLEYMPLPPEEAENGENAGNEEPKLQFSYVECLLYSFHQLGRKLPDFLTAKLNAEKLKDFKIRLQYFARGLQVYIRQLRLALQGKTGEALKTEENKIKVVALKITNNINVLIKDLFHIPPSYKSTVTLSWKPVQKVEIGQKRASEDTTSGSPPKKSSAGPKRDARQIYNPPSGKYSSNLGNFNYEQRGAFRGSRGGRGWGTRGNRSRGRLY
B3: HNRNPA0 (protein, UniProt Q13151 1-305, looked up)
Heterogeneous nuclear …: MENSQLCKLFIGGLNVQTSESGLRGHFEAFGTLTDCVVVVNPQTKRSRCFGFVTYSNVEEADAAMAASPHAVDGNTVELKRAVSREDSARPGAHAKVKKLFVGGLKGDVAEGDLIEHFSQFGTVEKAEIIADKQSGKKRGFGFVYFQNHDAADKAAVVKFHPIQGHRVEVKKAVPKEDIYSGGGGGGSRSSRGGRGGRGRGGGRDQNGLSKGGGGGYNSYGGYGGGGGGGYNAYGGGGGGSSYGGSDYGNGFGGFGSYSQHQSSYGPMKSGGGGGGGGSSWGGRSNSGPYRGGYGGGGGYGGSSF
B4: KIN (protein, UniProt O60870 1-393, looked up)
DNA/RNA-binding protein KIN17: MGKSDFLTPKAIANRIKSKGLQKLRWYCQMCQKQCRDENGFKCHCMSESHQRQLLLASENPQQFMDYFSEEFRNDFLELLRRRFGTKRVHNNIVYNEYISHREHIHMNATQWETLTDFTKWLGREGLCKVDETPKGWYIQYIDRDPETIRRQLELEKKKKQDLDDEEKTAKFIEEQVRRGLEGKEQEVPTFTELSRENDEEKVTFNLSKGACSSSGATSSKSSTLGPSALKTIGSSASVKRKESSQSSTQSKEKKKKKSALDEIMEIEEEKKRTARTDYWLQPEIIVKIITKKLGEKYHKKKAIVKEVIDKYTAVVKMIDSGDKLKLDQTHLETVIPAPGKRILVLNGGYRGNEGTLESINEKTFSATIVIETGPLKGRRVEGIQYEDISKLA
B5: HN1L (protein, UniProt Q9H910 1-190, looked up)
Jupiter microtubule …: MFQVPDSEGGRAGSRAMKPPGGESSNLFGSPEEATPSSRPNRMASNIFGPTEEPQNIPKRTNPPGGKGSGIFDESTPVQTRQHLNPPGGKTSDIFGSPVTATSRLAHPNKPKDHVFLCEGEEPKSDLKAARSIPAGAEPGEKGSARKAGPAKEQEPMPTVDSHEPRLGPRPRSHNKVLNPPGGKSSISFY
B6: SRP19 (protein, UniProt P09132 1-144, looked up)
Signal recognition particle …: MACAAARSPADQDRFICIYPAYLNNKKTIAEGRRIPISKAVENPTATEIQDVCSAVGLNVFLEKNKMYSREWNRDVQYRGRVRVQLKQEDGSLCLVQFPSRKSVMLYAAEMIPKLKTRTQKTGGADQSLQQGEGSKKGKGKKKK

One assay addresses T1, G9a and GLP (Homo sapiens, UniProt Q96KQ7+Q9H9B1).
T1 sequence (Q96KQ7 2-1210 limits assumed): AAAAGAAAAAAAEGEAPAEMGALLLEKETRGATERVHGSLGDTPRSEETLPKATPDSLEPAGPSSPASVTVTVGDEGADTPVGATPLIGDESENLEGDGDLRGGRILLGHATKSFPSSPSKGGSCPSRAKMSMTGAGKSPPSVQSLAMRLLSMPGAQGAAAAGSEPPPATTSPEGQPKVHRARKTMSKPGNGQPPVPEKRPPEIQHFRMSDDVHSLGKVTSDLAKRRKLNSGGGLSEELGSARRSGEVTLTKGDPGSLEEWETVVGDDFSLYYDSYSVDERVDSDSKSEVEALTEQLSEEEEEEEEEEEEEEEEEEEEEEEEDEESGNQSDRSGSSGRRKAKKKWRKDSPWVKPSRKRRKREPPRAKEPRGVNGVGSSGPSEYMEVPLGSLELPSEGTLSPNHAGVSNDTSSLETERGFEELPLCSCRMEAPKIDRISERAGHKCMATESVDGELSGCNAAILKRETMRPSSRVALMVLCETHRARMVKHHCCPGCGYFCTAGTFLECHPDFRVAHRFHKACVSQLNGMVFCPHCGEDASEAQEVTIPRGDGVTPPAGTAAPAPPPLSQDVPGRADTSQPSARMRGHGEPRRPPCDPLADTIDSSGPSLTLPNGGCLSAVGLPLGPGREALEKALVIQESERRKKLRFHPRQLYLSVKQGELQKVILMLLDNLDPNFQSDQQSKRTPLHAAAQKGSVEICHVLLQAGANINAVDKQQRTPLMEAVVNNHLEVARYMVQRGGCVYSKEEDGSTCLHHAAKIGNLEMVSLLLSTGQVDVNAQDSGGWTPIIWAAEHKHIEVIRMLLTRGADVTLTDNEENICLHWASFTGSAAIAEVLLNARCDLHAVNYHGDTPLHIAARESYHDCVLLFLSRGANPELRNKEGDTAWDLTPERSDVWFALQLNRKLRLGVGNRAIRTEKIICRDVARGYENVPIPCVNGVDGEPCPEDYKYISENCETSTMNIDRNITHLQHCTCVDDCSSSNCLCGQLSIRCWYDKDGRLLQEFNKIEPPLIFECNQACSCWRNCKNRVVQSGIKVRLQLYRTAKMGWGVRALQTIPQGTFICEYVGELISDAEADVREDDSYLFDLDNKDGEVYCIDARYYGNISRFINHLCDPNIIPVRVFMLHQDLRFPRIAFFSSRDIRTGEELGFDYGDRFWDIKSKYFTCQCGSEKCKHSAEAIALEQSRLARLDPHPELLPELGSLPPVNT
T1 sequence (Q9H9B1 2-1298 limits assumed): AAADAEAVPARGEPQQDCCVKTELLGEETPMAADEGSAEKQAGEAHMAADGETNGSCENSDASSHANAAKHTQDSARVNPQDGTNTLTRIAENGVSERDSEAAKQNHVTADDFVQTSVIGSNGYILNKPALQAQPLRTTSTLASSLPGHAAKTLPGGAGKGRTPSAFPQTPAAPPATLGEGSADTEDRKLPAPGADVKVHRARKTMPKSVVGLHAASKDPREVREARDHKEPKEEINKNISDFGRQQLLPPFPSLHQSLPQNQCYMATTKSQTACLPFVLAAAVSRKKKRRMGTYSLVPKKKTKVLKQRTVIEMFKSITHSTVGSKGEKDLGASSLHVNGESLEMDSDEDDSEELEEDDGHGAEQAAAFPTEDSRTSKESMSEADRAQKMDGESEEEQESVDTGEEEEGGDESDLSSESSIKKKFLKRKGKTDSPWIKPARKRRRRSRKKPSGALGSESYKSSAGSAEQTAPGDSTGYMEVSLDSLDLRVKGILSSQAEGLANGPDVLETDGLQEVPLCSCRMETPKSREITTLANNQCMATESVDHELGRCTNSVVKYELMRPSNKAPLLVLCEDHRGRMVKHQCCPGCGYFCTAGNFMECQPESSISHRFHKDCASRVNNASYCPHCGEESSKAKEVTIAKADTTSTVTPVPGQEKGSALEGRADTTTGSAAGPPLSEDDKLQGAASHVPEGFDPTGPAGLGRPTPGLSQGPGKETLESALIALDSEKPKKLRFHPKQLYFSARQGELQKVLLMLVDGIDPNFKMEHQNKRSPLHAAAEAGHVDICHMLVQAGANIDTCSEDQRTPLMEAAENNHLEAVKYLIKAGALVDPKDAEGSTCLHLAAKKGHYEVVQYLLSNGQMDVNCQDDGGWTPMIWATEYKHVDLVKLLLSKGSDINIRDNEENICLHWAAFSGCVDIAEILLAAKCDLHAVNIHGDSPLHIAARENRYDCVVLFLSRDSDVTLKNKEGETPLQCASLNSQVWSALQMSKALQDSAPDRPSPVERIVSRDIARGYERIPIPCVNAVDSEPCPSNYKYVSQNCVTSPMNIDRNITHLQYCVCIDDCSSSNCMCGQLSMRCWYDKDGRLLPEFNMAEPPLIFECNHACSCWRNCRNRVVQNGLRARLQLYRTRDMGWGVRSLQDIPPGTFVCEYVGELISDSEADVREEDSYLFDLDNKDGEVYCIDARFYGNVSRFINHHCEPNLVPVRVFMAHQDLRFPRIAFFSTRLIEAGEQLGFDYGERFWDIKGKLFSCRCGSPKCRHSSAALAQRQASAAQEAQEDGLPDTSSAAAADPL
Nature of the assay: Triple SILAC pull-down after UNC0638 treatment of 293T cells, DMSO/UNC0638 ratio of protein captured by 3×MBT.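 Note: mass spectrometry (Q-Exactive) SILAC quantitation, DMSO/UNC0638 ratio computed after subtracting 3×MBTD355N mutant pull-down background, only proteins with at least twofold 3×MBT over mutant signal considered.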 Format: cell-based. To be noted: SILAC ratio DMSO/UNC0638 of protein pulled down with 3xMBT; UNC0638 in heavy SILAC media. Further details: endogenous in cells; host or cells: HEK 293T.
B1: the “Relative to UNC0638 UNC Heavy” value is −0.02 log base 2.
On the same count and under the same terms, next, B2: 1.12 log base 2.
Turning to B3, the “Relative to UNC0638 UNC Heavy” value was determined as 0.02 log base 2.
For the molecule B4, the “Relative to UNC0638 UNC Heavy” value came out at 0.35 log base 2.
For the molecule B5, the “Relative to UNC0638 UNC Heavy” value came to 0.17 log base 2.
Take B6: the “Relative to UNC0638 UNC Heavy” value is recorded as −0.08 log base 2.

Staying with this assay, now noted: SILAC ratio DMSO/UNC0638 of protein pulled down with 3xMBT; UNC0638 in light SILAC media.
For the molecule B1, the “Relative to UNC0638 UNC Light” value is given as 0.33 log base 2.
Turning to B2, the “Relative to UNC0638 UNC Light” value turned out to be 0.31 log base 2.
The same measure, in the same setting: next, B3: 0.28 log base 2; B4: −0.04 log base 2.
As for B5, the “Relative to UNC0638 UNC Light” value was determined as 1.22 log base 2.
With B6, the “Relative to UNC0638 UNC Light” value is given as 0.38 log base 2.

Still in this assay, the particulars now being: average of UNC Light and UNC Heavy experiments.
In the case of B1, the “Relative to UNC0638 Average” value came out at 0.15 log base 2.
As for B2, the “Relative to UNC0638 Average” value is given as 0.71 log base 2.
For B3, the “Relative to UNC0638 Average” value came out at 0.15 log base 2.
The same measure, in the same setting: the same measure for B4: 0.15 log base 2.
Take B5: the “Relative to UNC0638 Average” value is on record as 0.70 log base 2.
On the same count and under the same terms, next, B6: 0.15 log base 2.

The assay is the same for the next values; noted with them: reduced association with 3xMBT after UNC0638 treatment.
As for B2, the “Candidate G9a/GLP target” value is reported as “✓”.
Turning to B5, the “Candidate G9a/GLP target” value is reported as “✓”.

A further assay relates to 3×MBT domain of L3MBTL1. In words: Triple SILAC pull-down, 3xMBT/3xMBTD355N ratio (cytoplasmic, nuclear and chromatin fractions of 293T cells).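 Note: proteins quantified with MaxQuant, requiring at least two unique peptides and quantification in both label directions, normalized to the mean of proteins from a digested loading control.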 Format: binding, human. To be noted: SILAC ratio, pull-down 3xMBT vs 3xMBTD355N; experiment with UNC0638 in heavy SILAC media.
B1: the “3xMBT/D355N UNC Heavy” value was 3.01 log base 2.
The same measure, in the same setting: the same measure for B2: 3.54 log base 2.
Consider B3, for which the “3xMBT/D355N UNC Heavy” value amounted to 2.94 log base 2.
On to B4, for which the “3xMBT/D355N UNC Heavy” value is 2.85 log base 2.
As to B5, the “3xMBT/D355N UNC Heavy” value stood at 2.73 log base 2.
As to B6, the “3xMBT/D355N UNC Heavy” value is listed as 1.88 log base 2.

The same assay, now with this note: SILAC ratio, pull-down 3xMBT vs 3xMBTD355N; experiment with UNC0638 in light SILAC media.
Regarding B1, the “3xMBT/D355N UNC Light” value is recorded as 6.59 log base 2.
Still for that read-out and setting: next, B2: 2.67 log base 2; B3: 3.80 log base 2.
On the same count and under the same terms, next, B4: 2.11 log base 2; B5: 3.57 log base 2.
With B6, the “3xMBT/D355N UNC Light” value worked out at 2.14 log base 2.
